# Data as given in IntAct's records for PubMed 17301792.
# B1: Translationally-controlled tumor protein homolog (Drosophila melanogaster (Fruit fly)), Q9VGS2 (parent)
# chain: MKIYKDIITGDEMFADTYKMKLVDDVIYEVYGKLITRQGDDIKLEGANASAEEADEGTDITSESGVDVVLNHRLTECFAFGDKKSYTLYLKDYMKKVLAKLEEKSPDQVDIFKTNMNKAMKDILGRFKELQFFTGESMDCDGMVALVEYREINGDSVPVLMFFKHGLEEEKC
# partner: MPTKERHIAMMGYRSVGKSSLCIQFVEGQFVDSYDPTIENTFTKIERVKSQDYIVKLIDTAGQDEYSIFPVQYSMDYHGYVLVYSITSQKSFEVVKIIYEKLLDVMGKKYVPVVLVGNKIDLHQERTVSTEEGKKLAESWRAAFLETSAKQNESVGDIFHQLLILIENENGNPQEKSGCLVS
# Variants of: B1
# Conditions: with rheb_drome Rheb
row,effect of a mutation on the interaction,Variant
1,decreasing interaction strength,E12V

# Variants of: B1
# Conditions: with rheb_drome Rheb
# Remark: another data set of the same source
row,effect of a mutation on the interaction,Variant
1,disrupting interaction strength,E12V
